Laboratory results: patent US20240327517A1 (SUZHOU SMARTNUCLIDE BIOPHARMACEUTICAL, published 2024)
Residue numbers refer to the chain shown, from its start. In names and notes the source's numbering stands.

B1: C37-S72R (histidine-tagged) (VHH)
VHH: QLQLVESGGGLVQAGGSLRLSCAASGLTFEDYAIGWFRQAPGKEREGISCIRIYDGNTYSAESVKGRFTISRDNAKNQVYLQINTLKPEDTAVYYCAAGSYYSCSVYPDYDMDYWGKGTLVTVSS
notes: not shown: histidine tag
B2: C37-ST-YS (VHH)
VHH: B1 VHH with S60Y, R72S, T85S
notes: Mutant of section 1.1 (Protein A test); No tag is mentioned for this section
B3: C37-SR (histidine-tagged) (VHH)
VHH: B1 VHH with E30S
notes: not shown: histidine tag
B4: C37-D109A (histidine-tagged) (VHH)
VHH: B1 VHH with R72S, D109A
notes: not shown: histidine tag
B5: C37 single-domain antibody (untagged) (VHH)
VHH: B1 VHH with R72S
notes: The untagged construct was expressed in HEK293 and used in the Protein A test; also called C37 antibody
B6: C37-KL-QQ (histidine-tagged) (VHH)
VHH: B1 VHH with R72S, K117Q, L120Q
notes: not shown: histidine tag
B7: C37-S60Y (VHH)
VHH: B1 VHH with S60Y, R72S
notes: as for B2
B8: C37-TMS (histidine-tagged) (VHH)
VHH: B1 VHH with R72S, Q78T, I83M, T85S
notes: not shown: histidine tag
B9: C37-YMS (VHH)
VHH: B1 VHH with S60Y, R72S, I83M, T85S
notes: as for B2
B10: C37-M112L (histidine-tagged) (VHH)
VHH: B1 VHH with R72S, M112L
notes: not shown: histidine tag
B11: C37-E30S (histidine-tagged) (VHH)
VHH: B1 VHH with E30S, R72S
notes: not shown: histidine tag
B12: C37-SA (histidine-tagged) (VHH)
VHH: B1 VHH with R72S, T85S, D109A
notes: not shown: histidine tag
B13: C37-SRS (histidine-tagged) (VHH)
VHH: B1 VHH with E30S, T85S
notes: not shown: histidine tag
B14: C37-D111A (histidine-tagged) (VHH)
VHH: B1 VHH with R72S, D111A
notes: not shown: histidine tag
B15: C37-RA (histidine-tagged) (VHH)
VHH: B1 VHH with D109A
notes: not shown: histidine tag
B16: C37-H4 (humanized variant of C37-F1) (VHH)
VHH: QVQLVESGGGLVQPGGSLRLSCAASGLTFSDYAIGWFRQAPGKEREGISCIRIYDGNTYYADSVKGRFTISRDNSKNHVYLQMNSLKPEDTAVYYCAAGSYYSCSVYPAYDLDYWGKGTLVTVSS
B17: C37-RSA (histidine-tagged) (VHH)
VHH: B1 VHH with T85S, D109A
notes: not shown: histidine tag
B18: C37-T85S (histidine-tagged, section 1.2) (VHH)
VHH: B1 VHH with R72S, T85S
notes: not shown: histidine tag
B19: C37-YDS (VHH)
VHH: B1 VHH with S60Y, E62D, R72S, T85S
notes: as for B2
B20: C37-SRA (histidine-tagged) (VHH)
VHH: B1 VHH with E30S, D109A
notes: not shown: histidine tag
B21: C37-YDMS (VHH)
VHH: B1 VHH with S60Y, E62D, R72S, I83M, T85S
notes: as for B2
B22: C37-H3 (humanized variant of C37-F1) (VHH)
VHH: B16 VHH with S75A, K87R, P88A
B23: C37-D31Y (histidine-tagged) (VHH)
VHH: B1 VHH with D31Y, R72S
notes: not shown: histidine tag
B24: C37H (humanized variant of C37-F1) (VHH)
VHH: B16 VHH with K87R, P88A
B25: C37-H2 (humanized variant of C37-F1) (VHH)
VHH: B16 VHH with G56R, K87R, P88A, K117Q
B26: C37-H1 (humanized variant of C37-F1) (VHH)
VHH: B16 VHH with N57R, K87R, P88A, K117Q

Columns and labels:
CD8α Fc fusion protein [1] = molecular target: T1, CD8α Fc fusion protein (UniProt P01732 22-182, limits assumed); experiment: ELISA, plate coated with CD8α Fc fusion protein, anti-His-HRP detection, 4-parameter fit; relative to C37
T1 construct: Used as the coating antigen of the ELISAs; also called CD8α antigen; CD8α protein; not shown: Fc part
T1 sequence (P01732 22-182 limits assumed): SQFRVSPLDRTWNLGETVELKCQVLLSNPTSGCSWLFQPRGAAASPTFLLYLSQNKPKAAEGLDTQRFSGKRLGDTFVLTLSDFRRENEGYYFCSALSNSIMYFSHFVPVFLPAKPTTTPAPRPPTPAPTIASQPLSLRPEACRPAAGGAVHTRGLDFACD
Text: The expression level and binding activity of each mutant were separately detected. For the sake of detection, a histidine-tagged recombinant plasmid was used in this section for transient transfection, after which a recombinant protein was purified by affinity chromatography with a corresponding Ni+ resin gel, thereby obtaining a protein of interest for direct use in the detection of expression level and binding activity.
(§1) After washing, an anti-His horseradish peroxidase-labeled antibody was added to allow reaction for 1 hour at room temperature. After washing, a chromogenic solution was added, and an absorption value was read at a wavelength of 450 nm. The software SotfMaxPro v5.4 was used for data processing and diagraph analysis; four-parameter fitting was performed to obtain the binding curve of the mutated antibody to CD8α; and different mutants were compared in relative activity with the C37 antibody as a control, in order to reflect the affinity of the antibody to CD8α.

[2] = molecular target: T2, PROTEIN A (packing of the PROTEIN A affinity chromatography) (UniProt P38507 37-327, limits assumed); experiment: binding to the Protein A affinity packing
[3] = molecular target: T2, PROTEIN A (packing of the PROTEIN A …); experiment: Protein A affinity chromatography of HEK293-expressed protein, SDS-PAGE of fractions
Text: After preliminary screening and identification, C37-cHis was selected as a final antibody sequence (including a histidine tag) from candidate antibodies, and meanwhile, an untagged recombinant plasmid C37 was constructed. HEK293 cells were transfected with the single-domain antibody C37 fusion protein plasmid constructed by the above recombination for expression of an antibody. […] Therefore, it was necessary to optimize the sequence of the C37 antibody to allow purification of the C37 antibody by affinity chromatography.
The recombinant plasmid C37 and the mutated recombinant plasmid C37-YDHMS were subjected to antibody expression via the HEK293 cells, respectively, and purification was conducted by means of the packing of the PROTEIN A affinity chromatography, in order to verify the binding to the affinity packing after the mutations.

CD8α Fc fusion protein [4] = molecular target: T1, CD8α Fc fusion protein; experiment: affinity detection of humanized variants (method not restated; taken as the CD8α Fc ELISA of section 1.2); relative to C37-F1
Method: as §1

Binder | Relative activity (%) (CD8α Fc fusion protein [1]) | other results
B1 | 115% | 
B2 |  | binding result [2]: no binding
B3 | 42% | 
B4 | 476% | 
B5 |  | binding result [3]: no binding
B6 | 141% | 
B7 |  | binding result [2]: no binding
B8 | 107% | 
B9 |  | binding result [2]: no binding
B10 | 206% | 
B11 | 126% | 
B12 | 257% | 
B13 | 33% | 
B14 | 84.6% | 
B15 | 108% | 
B16 |  | Relative activity (%) (CD8α Fc fusion protein [4]): 141%
B17 | 103% | 
B18 | 162% | 
B19 |  | binding result [2]: no binding
B20 | 40% | 
B21 |  | binding result [2]: no binding
B22 |  | Relative activity (%) (CD8α Fc fusion protein [4]): 171%
B23 | 48.4% | 
B24 |  | Relative activity (%) (CD8α Fc fusion protein [4]): 151%
B25 |  | Relative activity (%) (CD8α Fc fusion protein [4]): 122%
B26 |  | Relative activity (%) (CD8α Fc fusion protein [4]): 110%
